Test results as given in US20160237154A1 (SORRENTO THERAPEUTICS, published 2016).

Key:
[1] = molecular target: T1, recombinant human CTLA4 (as human Fc fusion) (human, UniProt P16410 37-162, limits assumed); test: blocking ELISA: serially diluted IgG pre-mixed with recombinant human CTLA4-Fc, transferred to a Ni-NTA plate coated with His-tagged human CD80 (the blocked ligand); HRP anti-human Fc, OD 450
T1 construct: not shown: human Fc
T1 sequence (looked up): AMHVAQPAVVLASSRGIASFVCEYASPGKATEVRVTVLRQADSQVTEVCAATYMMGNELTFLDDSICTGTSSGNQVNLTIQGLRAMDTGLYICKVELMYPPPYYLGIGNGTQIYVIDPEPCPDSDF
Experimental: (§1) Assays were performed to determine the ability of antibody CT1E1 to inhibit CD80 and CD86 activity. A 96-well Ni-NTA plate was coated with 1 μg/mL recombinant human CD80 or CD86 with hexahistidine tag at room temperature for 1 h. Pre-mixed 30 μL serial 3-fold diluted IgGs (started from 25 μg/mL) and 30 μL of […] recombinant human CTLA4 (as human Fc fusion) and incubated the mixtures for 30 minutes, then washed the plate with PBS-Tween (PBST) 3 times. The mixtures were transferred 50 μL to the ELISA plate and incubated 30 min with shaking. The plate was washed 3 times with PBST, then horseradish peroxidase (HRP)-conjugated goat anti-human Fc (1:500 in casein) was added, then 3,3′,5,5′-Tetramethylbenzidine (TMB) was added as substrate and developed 30 min. 2M H₂SO₄ was used to stop the reaction and the OD was read at 450 nm.

[2] = molecular target: T1, recombinant human CTLA4 (as human Fc …); test: blocking ELISA: serially diluted IgG pre-mixed with recombinant human CTLA4-Fc, transferred to a Ni-NTA plate coated with His-tagged human CD86 (the blocked ligand); HRP anti-human Fc, OD 450
Experimental: as §1

mouse CTLA4/His = molecular target: T2, mouse CTLA4/His (mouse, UniProt P09793 36-162, limits assumed); test: ELISA, CTLA4/His captured on Ni-NTA plate, antibody ~1 ug/mL, anti-human Fc-HRP
T2 construct: also called murine CTLA4; not shown: His tag
Experimental: Using a 96-well Ni-NTA plate recombinant human CTLA4/His, cynomolgus CTLA4/His or mouse CTLA4/His @ 1 μg/mL were captured. The plate was incubated for 30 min at room temperature, washed 3 times with PBS-Tween (PBST), then anti-CTLA4 antibodies (˜1 μg/mL) diluted in casein were added and incubated for 30 min with shaking. The plate was washed 3 times with PBST, horseradish peroxidase (HRP)-conjugated goat anti-human Fc (1:500 in casein) was added, then 3,3′,5,5′-Tetramethylbenzidine (TMB) was added as substrate and developed about 5 min. 2M H₂SO₄ was used to stop the reaction and the OD was read at 450 nm.

[3] = molecular target: T3, Recombinant human CTLA4/His (human, UniProt P16410 36-162, limits assumed); test: SPR (BiaCore), antibody captured on anti-human Fc, His-tagged analyte, 1:1 model
T3 construct: not shown: His tag
T3 sequence (looked up): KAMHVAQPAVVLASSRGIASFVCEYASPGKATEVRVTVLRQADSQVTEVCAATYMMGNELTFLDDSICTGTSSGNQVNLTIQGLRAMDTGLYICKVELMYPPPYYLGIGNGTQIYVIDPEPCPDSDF
Experimental: The affinity of antibody CT1E1 for human CTLA4 was also determined using surface plasmon resonance (BiaCore). Anti-human Fc antibody (GE, BR-1008-39) was immobilized on CM5 sensor chip to approximately 1000 RU using standard NHS/EDC coupling methodology. Antibodies (about 10 μg/ml) were captured for 60 s at a flow rate 10 ul/min Recombinant human […] was serially diluted in running buffer (HBS-EP). All measurements were conducted in HBS-EP buffer with a flow rate of 30 μL/min. The antibody was diluted appropriately to obtain a series of concentrations. A 1:1 (Langmuir) binding model was used to fit the data. The Chi2 (chi-squared) value was used as a guideline for fitting quality. Results from the affinity studies are provided below in Table 2.

B1: CT1E1 (antibody, V domains shown)
VH: EVQLVESGGGLVQPGRSLRLSCRGSNFNFDDLAISWVRQAPGKGLEWLGFVRSKAYGETTDYVASVKGRFTISRDDSKFIAWLQMDSLKTDDTAVYYCTTFNYWGQGTLVTVSS
VL: QPVLTQPPSVSVAPGKTARISCGGNNIASEAVHWYQKKPGQAPVLVIYYDSDRPSGIPERFSGSNSGNTATLRISRVDAGDEADYYCQVWDRTTDQPVFGGGTKLTVL
notes: also called human anti-CTLA4 antibody CT1E1
- IC50 [1]: 0.313 nM
- IC50 [2]: 0.329 nM
- binding result (mouse CTLA4/His): binds
- Kd [3]: 1.81 nM
- koff [3]: 0.000242 s⁻¹
- kon [3]: 133000 M⁻¹ s⁻¹
